Assay results taken from patent publication US20210206875A1, “ERBB-2 TARGETING AGENT AND A BISPECIFIC ANTIBODY WITH ANTIGEN-BINDING SITES THAT BIND AN EPITOPE ON AN EXTRACELLULAR PART OF ERB-2 AND ERBB-3, FOR TREATMENT OF AN INDIVIDUAL WITH AN ERBB-2, ERBB-2/ERBB-3 POSITIVE TUMOUR” (Merus N.V., priority 2017, published 2021).

What was measured:
MCF-7 cells = assay: HRG dependent MCF-7 proliferation assay; type: cell-based, human; details: HRG dependent MCF-7 assay
Experimental: (§1) SK-BR-3 cells were cultured in DMEM-F/12 supplemented with L-glutamine and 10% heat inactivated FBS. BxPC-3-luc2 cells were cultured in RPMI1640 supplemented with 10% heat inactivated FBS. MCF-7 cells were cultured in RPMI1640 supplemented with 100 μM, NEAA1 mM sodium pyruvate, 4 μg/ml insulin and 10% heat inactivated FBS.
For the proliferation assay of MCF-7 and BxPC-3-luc2 cells, subconfluent cell cultures were washed with PBS, trypsinized and trypsin was inactivated by adding culture medium. Cells were washed twice in large volumes of assay medium (RPMI 1640 medium containing 0.05% BSA and 10 μg/ml Holo Transferrin). MCF-7 cells were diluted to 5×10^4 cells/ml in culture medium. Antibodies were diluted to concentrations of 10 and 1 μg/ml and added in a volume of 100 μl in 96-well black bottom plates (ABgene AB-0932). Cells were added at a density of 5000 cells/well in the presence of 1 ng/ml final concentration human Recombinant Human NRG1-beta 1/HRG1-beta 1 EGF Domain; (396-HB-050 RND). Human NRG1-beta 1/HRG1-beta 1 EGF Domain will hereinafter be referred to as HRG. […] Fluorescence was measured at 550 nm excitation with 590 nm emission wave length.
The IC50 for the bispecific antibodies, monoclonals and comparator antibodies was calculated using non-linear regression analysis with Prism software.

BxPC-3-luc2 cells = assay: HRG dependent BxPC-3-luc2 proliferation assay; type: cell-based, human
Experimental: as §1
Antibodies were diluted to concentrations of 10 and 1 μg/ml and added in a volume of 100 μl in 96-well black bottom plates (ABgene AB-0932). […] Fluorescence was measured at 550 nm excitation with 590 nm emission wave length.

B1: #Ab6: anti-HER3 antibody of Merrimack Pharmaceuticals, recloned in IgG1 backbone (antibody, chains of the INN, looked up, V domains shown)
VH: EVQLLESGGGLVQPGGSLRLSCAASGFTFSHYVMAWVRQAPGKGLEWVSSISSSGGWTLYADSVKGRFTISRDNSKNTLYLQMNSLRAEDTAVYYCTRGLKMATIFDYWGQGTLVTVSS
VL: QSALTQPASVSGSPGQSITISCTGTSSDVGSYNVVSWYQQHPGKAPKLIIYEVSQRPSGVSNRFSGSKSGNTASLTISGLQTEDEADYYCCSYAGSSIFVIFGGGTKVTVL
modifications: IgG1
notes: anti-HER3 antibody of Merrimack Pharmaceuticals, recloned in IgG1 backbone
In the case of B1, the IC50 (MCF-7 cells) is reported as 0.504 nM and the “BxPC3 % Inhibition” value (BxPC-3-luc2 cells) is reported as −7%.
